We go through three proteins from article PMC9249340 (FEBS Open Bio, 2022).

Data set [1] deals with the molecule itself. The data set is described as follows: crystal structure; wild-type GDAP1Δ295-358, new crystal form, +8 °C, 200 mM NH4 formate, 25% PEG3350, 8.64 mg/mL protein.
Data set [2] deals with the molecule itself. The data set is described as follows: SEC-SAXS; 50 µL at 8.5-10 mg/mL on a BioSEC3-300 column, 25 mM HEPES pH 7.5, 300 mM NaCl, +15 °C; monomer to dimer.

B1: GDAP1Δ295‐358 wild type (domain or fragment, human, UniProt Q8TB36 1-294, looked up)
chain: MAERQEEQRGSPPLRAEGKADAEVKLILYHWTHSFSSQKVRLVIAEKALKCEEHDVSLPLSEHNEPWFMRLNSTGEVPVLIHGENIICEATQIIDYLEQTFLDERTPRLMPDKESMYYPRVQHYRELLDSLPMDAYTHGCILHPELTVDSMIPAYATTRIRSQIGNTESELKKLAEENPDLQEAYIAKQKRLKSKLLDHDNVKYLKKILDELEKVLDQVETELQRRNEETPEEGQQPWLCGESFTLADVSLAVTLHRLKFLGFARRNWGNGKRPNLETYYERVLKRKTFNKVLG
notes: GDAP1, human; printed as GDAP1Δ295-358 (residues 295-358 deleted); also called wtGDAP1Δ295‐358; GDAPΔ295‐358; source: E. coli BL21(DE3), purified (Ni-NTA, TEV cleavage, second Ni-NTA, SEC on Superdex 200); not shown: His6, N-terminal, cleaved
With B1, the binding result in data set [1] is “binds”.

B2: GDAP1Δ303‐358 R120W (domain or fragment, human, UniProt Q8TB36 1-302, looked up)
chain: MAERQEEQRGSPPLRAEGKADAEVKLILYHWTHSFSSQKVRLVIAEKALKCEEHDVSLPLSEHNEPWFMRLNSTGEVPVLIHGENIICEATQIIDYLEQTFLDERTPRLMPDKESMYYPWVQHYRELLDSLPMDAYTHGCILHPELTVDSMIPAYATTRIRSQIGNTESELKKLAEENPDLQEAYIAKQKRLKSKLLDHDNVKYLKKILDELEKVLDQVETELQRRNEETPEEGQQPWLCGESFTLADVSLAVTLHRLKFLGFARRNWGNGKRPNLETYYERVLKRKTFNKVLGHVNNILIS
notes: GDAP1, human; printed as GDAP1Δ303-358 (residues 303-358 deleted) with the CMT2K-linked mutation R120W; Disease mutation that occurs in patients; also called R120W GDAP1; GDAP1∆303‐358 R120W; source: E. coli BL21(DE3), purified (Ni-NTA, TEV cleavage, second Ni-NTA, SEC); not shown: His6, N-terminal, cleaved
B2: in data set [2], the stoichiometry N (as a rule, the number of molecules, sites or subunits per partner or assembly) is 2.

B3: GDAP1Δ303‐358 H123R (domain or fragment, human, UniProt Q8TB36 1-302, looked up)
chain: MAERQEEQRGSPPLRAEGKADAEVKLILYHWTHSFSSQKVRLVIAEKALKCEEHDVSLPLSEHNEPWFMRLNSTGEVPVLIHGENIICEATQIIDYLEQTFLDERTPRLMPDKESMYYPRVQRYRELLDSLPMDAYTHGCILHPELTVDSMIPAYATTRIRSQIGNTESELKKLAEENPDLQEAYIAKQKRLKSKLLDHDNVKYLKKILDELEKVLDQVETELQRRNEETPEEGQQPWLCGESFTLADVSLAVTLHRLKFLGFARRNWGNGKRPNLETYYERVLKRKTFNKVLGHVNNILIS
notes: GDAP1, human; printed as GDAP1Δ303-358 (residues 303-358 deleted) with the Finnish founder CMT2K mutation H123R; Disease mutation that occurs in patients; also called H123R GDAP1; GDAP1∆303‐358 H123R; source: E. coli BL21(DE3), purified (Ni-NTA, TEV cleavage, second Ni-NTA, SEC); not shown: His6, N-terminal, cleaved
As to B3, the “stoichiometry N” value in data set [2] came to 2.
